Laboratory results: PMC2248580

Target: human activated blood coagulation factor X (FXa) (human)
Experiment: SPR; […]; 37°C; HBS (10 mM Hepes, 150 mM NaCl, 5 mM CaCl2, 0.005% P20, pH 7.4); Langmuir fit; […]

Chain of human activated blood coagulation factor X (FXa) (human) (P00742 whole entry): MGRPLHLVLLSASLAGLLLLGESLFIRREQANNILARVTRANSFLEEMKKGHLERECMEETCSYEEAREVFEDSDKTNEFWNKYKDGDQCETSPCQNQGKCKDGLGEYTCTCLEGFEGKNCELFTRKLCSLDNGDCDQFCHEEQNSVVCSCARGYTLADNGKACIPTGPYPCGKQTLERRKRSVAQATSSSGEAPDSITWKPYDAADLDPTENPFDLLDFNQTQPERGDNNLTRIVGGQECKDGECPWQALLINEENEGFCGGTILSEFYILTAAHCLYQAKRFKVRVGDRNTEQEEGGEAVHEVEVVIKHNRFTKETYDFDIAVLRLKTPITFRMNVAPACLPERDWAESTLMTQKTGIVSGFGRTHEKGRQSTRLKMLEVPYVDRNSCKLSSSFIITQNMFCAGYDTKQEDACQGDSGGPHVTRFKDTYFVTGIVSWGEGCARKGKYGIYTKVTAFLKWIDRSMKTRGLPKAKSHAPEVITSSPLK

B1: isoform A of ammodytoxin from Vipera ammodytes ammodytes venom (enzyme)
chain: SLLEFGMMILGETGKNPLTSYSFYGCYCGVGGKGTPKDATDRCCFVHDCCYGNLPDCSPKTDRYKYHRENGAIVCGKGTSCENRICECDRAAAICFRKNLKTYNYIYRNYPDFLCKKESEKC
B1 was tested, and the Kd was 30 nM, the koff was 0.007 s⁻¹ and the kon was 220000 M⁻¹ s⁻¹.

B2: Non-pancreatic secreted human group IIA phospholipase A2 (enzyme)
chain: NLVNFHRMIKLTTGKEAALSYGFYGCHCGVGGRGSPKDATDRCCVTHDCCYKRLEKRGCGTKFLSYKFSNSGSRITCAKQDSCRSQLCECDKAAATCFARNKTTYNKKYQYYSNKHCRGSTPRC
B2 was tested, and the Kd was 14 nM, the koff was 0.029 s⁻¹ and the kon was 2e+06 M⁻¹ s⁻¹.
